Assay results: US6512102B1, “Compositions and methods of diagnosis and treatment using casein kinase I” (Chiron Corporation, priority 1998, dated 2003)

How the values were obtained:
[1] = system: ventralized Xenopus embryo; experiment: Rescue of dorsal structure of ventralized Xenopus embryos by injected RNA; type: in vivo; conditions: RNA injected into ventralized embryos
Protocol: (§1) Combinations of Wnt-1, CKIε, CKI kinase dead variant (lys→arg 38) and Lef-1 were transfected into Cos cells with a luciferase gene driven by multiple copies of Lef enhancer elements. As an internal control of transfection efficiency, the β-galactosidase gene driven by the SV40 promoter was co-transfected in all samples. 24 hours after transfection, cells were lysed and the lysate was tested for luciferase activity. The luciferase activity was normalized with respect to β-galactosidase activity. […] Dorsoanterior index (DAI) grade numbers were assigned to the phenotypes of the embryos. A grade 5 embryo is normal; a grade 3 embryo is cyclopic (one eye); a grade 1 embryo has a tail fin and somites but no head (acephalic); and a grade 0 embryo has no dorsoanterior structures (Kao et al., 1988).
Furthermore, when the variant was co-transfected with CKIε into Cos cells, Lef-1-dependent luciferase activity was inhibited. […] Thus, the variant interferes with Wnt signaling, acting as a dominant negative.

[2] = system: Lef-1 dependent transcription; experiment: Lef-1 enhancer luciferase reporter assay in Cos cells; type: cell-based; conditions: for Wnt signal transduction (Lef-luciferase): variant co-transfected with Wnt-1; for signal transduced by dominant negative GSK3 (DNGSK3): variant co-transfected with dominant negative GSK3 and Lef-1; for luciferase activity transduced by Dvl-1: variant with Dvl-1
Protocol: as §1
The effect of CKI on Lef-1 dependent transcription in Cos mammalian cells was examined. A luciferase reporter gene driven by multiple copies of the Lef-I enhancer sequence was used. When only Wnt-I or lef-I or CKIε was transfected with the reporter construct, luciferase activity was induced only 2 to 3 fold (FIG. 1A). When Lef-1 was cotransfected with either Wnt-1 or CKIε, luciferase activity was induced 30 or 12 fold respectively.
Luciferase reporter plasmid contains multiple Lef-I enhancer sites upstream of the fos basal promoter. Various DNA plasmids encoding Wnt-1, CKIε , Dvl-1, GSK3 etc. were co-transfected with a luciferase reporter plasmid and a SV40 β-galactosidase plasmid into 24-well Cos cell culture. For each well, 0.5 μg total DNA was in a ratio of 0.08 μg:016 μg:0.02 μg for signaling molecules:luciferase: β-gal. SV40 β-gal construct was used as an internal transfection control, since β-gal activity is independent of the Wnt-1 signaling molecules. Transfection was done using LT1 (5 μl/μg DNA) (Panvera Co. # MIR23 10). Each sample was transfected in triplex repeats to obtain a statistical value. After 24 hours, cells were washed once with PBS and lysed in 50 μl/well lysis buffer supplied with the luciferase assay kit (Promega cat# EI500). 10 μl of each sample was aliquoted into two sets of tubes, one set for the luciferase assay and another for β-gal chemiluminescent reporter assay (Galacto-Light, TROPIX Inc. #BL100G). The result of the luciferase assay was divided by the corresponding β-gal activity, and then averaged.

casein = experiment: Kinase activity of construct transfected into Cos cells, casein as substrate; type: biochemical; conditions: substrate casein protein
Protocol: It was transiently transfected into Cos cells and its activity was tested using substrate casein protein.

[3] = system: Lef-1 reporter gene activity; experiment: Lef-1 reporter gene assay in 293 cells after antisense transfection; type: cell-based; conditions: Wnt-1 expressed in 293 cells
Protocol: FIGS. 4A-C Lef-1 reporter gene activity induced by Wnt (A), Dv1-3 (B), or mutant β-catenin (C) is inhibited by CKIε antisense polynucleotides (CKI-a and CKI-b), but not by the reverse sequence control (RC). 293 cells were plated at a density of 1.5*10^5 cells per 12-well dish 16 hours prior to transfection 6 ul 0.5 mM cationic lipitoid and 2 ul 100 uM polynucleotide in 50 ul opti-MEM (Life Technologies) was mixed together and added dropwise to cells in 1 ml of fresh media. After 24 hours cells, cells were washed with opti-MEM and transfected with luciferase reporter plasmids (0.02 mg lef-1, 0.2 lef-1 reporter, 0.03 mg renilla luciferase) control using lipofectamine (Life Technologies). Cells were assayed for luciferase activity 48 hours after transfection of antisense polynucleotides.
One method for measuring activation of gene expression by the Wnt pathway is to use the Lef-1 reporter gene assay. Antisense polynucleotides were transfected into cells by using cationic peptoid reagents followed by transfection with Lef-1, Lef-1 reporter, and Wnt-1 plasmids using lipofectamine (Life Technologies). Lef-1 reporter gene activity was measured using the Dual-Luciferase Reporter Assay System (Promega) according to the manufacturers specifications. […]

Molecule | rescue of embryonic dorsal structure [1] | Lef-1-dependent luciferase activity ([2]; variant co-transfected with CKIε) | Wnt signal transduction (Lef-luciferase) [2] | Wnt signal transduction (Lef-luciferase) ([2]; listed as CKIKD) | signal transduced by dominant negative GSK3 (DNGSK3) [2] | signal transduced by dominant negative GSK3 (DNGSK3) ([2]; listed as variant) | luciferase activity transduced by Dvl-1 [2] | luciferase activity transduced by Dvl-1 ([2]; listed as variant) | kinase activity (casein) | luciferase activity induced ([2]; cotransfected with Lef-1, Cos cells) | stimulation of Lef-1 reporter gene transcription over vector transfected cells [3]
CKI lys→arg 38: kinase-inactive CKIε construct in which lysine 38 in the kinase domain was mutated to arginine (protein, Mus Casein Kinase I epsilon) MELRVGNKYRLGRKIGSGSFGDIYLGANIASGEEVAIRLECVKTKHPQLHIESKFYKMMQGGVGIPSIKWCGAEGDYNVMVMELLGPSLEDLFNFCSRKFSLKTVLLLADQMISRIEYIHSKNFIHRDVKPDNFLMGLGKKGNLVYIIDFGLAKKYRDARTHQHIPYRENKNLTGTARYASINTHLGIEQSRRDDLESLGYVLMYFNLGSLPWQGLKAATKRQKYERISEKKMSTPIEVLCKGYPSEFSTYLNFCRSLRFDDKPDYSYLRQLFRNLFHRQGFSYDYVFDWNMLKFGAARNPEDVDRERREHEREERMGQLRGSATRALPPGPPTGATANRLRSAAEPVASTPASRIQQTGNTSPRAISRADRERKVSMRLHRGAPANVSSSDLTGRQEVSRLAASQTSVPFDHLGK | failed to do so | inhibited | blocked the Wnt signal transduction in a dose-dependent manner | inhibits Wnt signaling | did not inhibit the signal | did not reduce the signal | inhibited | inhibited the effect of Dv1-1 on luciferase activity | no detectable kinase activity | – | –
Wnt-1: Wnt-1 expressed from transfected plasmid (protein, UniProt P04628 28-370, looked up) Proto-oncogene Wnt-1: ANSSGRWWGIVNVASSTNLLTDSKSLQLVLEPSLQLLSRKQRRLIRQNPGILHSVSGGLQSAVRECKWQFRNRRWNCPTAPGPHLFGKIVNRGCRETAFIFAITSAGVTHSVARSCSEGSIESCTCDYRRRGPGGPDWHWGGCSDNIDFGRLFGREFVDSGEKGRDLRFLMNLHNNEAGRTTVFSEMRQECKCHGMSGSCTVRTCWMRLPTLRAVGDVLRDRFDGASRVLYGNRGSNRASRAELLRLEPEDPAHKPPSPHDLVYFEKSPNFCTYSGRLGTAGTAGRACNSSSPALDGCELLCCGRGHRTRTQRVTERCNCTFHWCCHVSCRNCTHTRVLHECL | – | – | – | – | – | – | – | – | – | 30 fold | 4-6 fold
